Laboratory results taken from patent publication US20090075342.

System: IgE (full length human IgE, h-IgE) (Homo sapiens), P01854-1
Assay: filter
Conditions: 2'-deoxy at 6, 8, 9, 16, 18, 19, 20, 21, deoxyinosine at 16, 18, 20 (written as G), T24 = 3' inverted dT], dot-blot, DPBS with Mg and Ca, 0.1 mg/mL BSA, room temperature, 30 min

IgE (full length human IgE, h-IgE) (Homo sapiens), P01854-1, sequence (P01854 other isoform, or with tags, fused parts or gaps): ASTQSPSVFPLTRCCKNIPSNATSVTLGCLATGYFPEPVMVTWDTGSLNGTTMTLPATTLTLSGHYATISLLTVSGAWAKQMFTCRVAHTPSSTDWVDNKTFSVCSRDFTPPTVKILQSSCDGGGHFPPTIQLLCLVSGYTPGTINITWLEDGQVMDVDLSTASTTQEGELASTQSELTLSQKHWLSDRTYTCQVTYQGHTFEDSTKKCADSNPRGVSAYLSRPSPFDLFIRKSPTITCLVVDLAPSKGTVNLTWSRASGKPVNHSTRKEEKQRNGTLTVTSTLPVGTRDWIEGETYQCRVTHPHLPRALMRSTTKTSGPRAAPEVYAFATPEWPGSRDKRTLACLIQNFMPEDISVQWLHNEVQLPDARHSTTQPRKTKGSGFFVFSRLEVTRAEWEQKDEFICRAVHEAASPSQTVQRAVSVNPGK

Q: With AGCCUGGGGACCCAUGGGGGGCU [ARC2982] as the sequence, how does the Kd (as ARC1666 (2'-OMe/2'-deoxy/deoxyinosine, 3' 3T cap) with PS between 8-9, 15-16, 16-17, 17-18, 18-19, 20-21 [2'-OMe at 1-5, 7, 10-15, 17, 22, 23, PS between 8-9, 15-16, 16-17, 17-18, 18-19, 20-21) read?
A: 0.03 nM

Q: With AGCCUGGGGACCCAUGGGGGGCU [ARC2983] as the sequence, how does the Kd (as ARC1666 (2'-OMe/2'-deoxy/deoxyinosine, 3' 3T cap) with PS between 8-9, 15-16, 16-17, 18-19, 19-20, 20-21 [2'-OMe at 1-5, 7, 10-15, 17, 22, 23, PS between 8-9, 15-16, 16-17, 18-19, 19-20, 20-21) read?
A: 0.02 nM

Q: With AGCCUGGGGACCCAUGGGGGGCU [ARC1666] as the sequence, how does the Kd (2'-OMe at A1 G2 C3 C4 U5 G7 A10 C11 C12 C13 A14 U15 G17 C22 U23, 2'-deoxy at G6 G8 G9 I16 I18 G19 I20 G21, n = deoxyinosine, PS between 8-9, 15-16, 16-17, 18-19, 20-21, 3' 3T cap (inverted dT) [2'-OMe at 1-5, 7, 10-15, 17, 22, 23) read?
A: 0.035 nM

Q: With AGCCUGGGGACCCAUGGGGGGCU [ARC3901] as the sequence, how does the Kd (as ARC1666 (2'-OMe/2'-deoxy/deoxyinosine, 3' 3T cap) with PS between 8-9, 15-16, 16-17, 17-18, 18-19, 19-20, 20-21 [2'-OMe at 1-5, 7, 10-15, 17, 22, 23, PS between 8-9, 15-16, 16-17, 17-18, 18-19, 19-20, 20-21) read?
A: 0.13 nM
